Experimental data taken from doi:10.1101/2024.08.05.606605v1.

Tested on: O=[N+]([O-])c1ccc(O[C@@H]2O[C@H](CO)[C@@H](O)[C@H](O)[C@H]2O)cc1
Assay: purified protein
Details: 50 mM sodium acetate pH 5.5, 55 °C

Substance	Km [µM]	kcat [s⁻¹]
WT-AtGH1 (Acetivibrio thermocellus ATCC 27405)	2420 ± 170	10.08
WT-AtGH1 (Acetivibrio thermocellus ATCC 27405; G168W)	2230 ± 130	9.1175
WT-AtGH1 (Acetivibrio thermocellus ATCC 27405; G168W/S242L)	1320 ± 110	12.38
WT-AtGH1 (Acetivibrio thermocellus ATCC 27405; S242L)	1790 ± 110	7.0875
WT-AtGH1 (Acetivibrio thermocellus ATCC 27405; S242W)	2100 ± 100	27.115
